Data on one substance can be found in patent US20250059499A1, “CELL-SURFACE ENGINEERING COMPOSITIONS AND METHODS FOR THE PREVENTION OF IMMUNE REJECTION” (THE UNIVERSITY OF BRITISH COLUMBIA, priority 2021, published 2025).

LPG = linear polyglycerol, Mn 14,900 Da

Data set [1] concerns Ea.hy926 cells co-cultured with HLA-A2-reactive CAR T cells. It counts as cell-based. Conditions: effector:target 2:1, 1:2 and 1:10, 18 hours. The procedure: The experiment was performed similar to previously described PBMC/Ea.hy926 co-culture experiments by replacing the effector with CAR-T cells. Ea.hy926 cells were engineered with polymers in UW solution as outlined. Cryopreserved CAR T cells were thawed using standard protocol41 and were pelleted and resuspended in phenol-free DMEM (5% FBS, pen/strep) at an effector (CAR-T cell) to target (Ea.hy926) ratios of 2:1, 1:2 and 1:10 (Vf=100 μL). After 18 hours, supernatants were removed from the wells and PBMCs were removed through centrifugation (300 g×5 minutes) and measured for LDH content to probe cell lysis using an LDH cytotoxicity assay (Biovision Inc.™). CAR-T cell-mediated cytotoxicity was calculated according to Eq. 2 replacing PBMC LDH release with CAR-T cell LDH release. LDH released by Ea.hy926 following 18 hour culture period that have not undergone polymer attachment and cultured in the absence of CAR-T cell is the 100% alive control and LDH released by Ea.hy926 following treatment with RIPA buffer for 10 minutes at ambient temperature is 100% dead control.

In data set [2] the test system is Balb/c aortic allograft in C57BL/6 recipient. Nature of the data set: Murine aortic interposition grafting, morphological analysis of allograft arteries. It counts as in vivo, mouse. Conditions: day 2 post-transplantation. The procedure:
Murine aortic interposition grafting was performed as described previously.^13,14 Segments of abdominal aorta from Balb/c (H2d) donor mice were excised, flushed with UW solution and then incubated in UW solution alone (containing 5 Mm CaCl2, 0.2 U/Ml gTGase and 3 mM GSH) or UW solution fortified with 0.2 U/mL gtTGase and 0.5 Mm polymer (LPG-Q, LPG-QSia3Lac) for 1 hour at 4° C. Aortic segments were then flushed with saline and interposed into the resected infra-renal aorta of C57BL/6 (H2b) recipient mice.
At day 2, 15 and 42 post-transplantation, grafted artery segments were perfusion fixed with 4% (v/v) paraformaldehyde, excised, and frozen in optimal cutting temperature medium. […] Medial thickness was quantified using ImageJ software (NIH) as described.69 Histological features of acute rejection at day 15 post-transplantation were graded in a blinded manner on a 0-12 scale because acute rejection involves more extensive features of immune reaction and injury compared to day 2 post-transplantation. […] Leukocyte infiltration, medial injury and intimal thickening were each graded on a 0-4 scale and an aggregate score calculated. For evaluation of chronic rejection, intimal thickening at day 42 was quantified by averaging the luminal narrowing in 3 cross-sections per artery that were ˜100, 150 and 200 μm past the suture sites using ImageJ™ software.

In the case of “linear polyglycerol glutamine (Ac-GQQQLGGGGG-{LPG}; not fully specified; also: part of the polymer BODIPY FL-labelled in some experiments) [LPG-Q]”, the “CAR-T cell induced endothelial cell cytotoxicity” value in data set [1] is given as “reduced endothelial cytotoxicity”. The “medial inflammation (graded 0-4)” value in data set [2] is listed as “not demonstrated”.
